Test results as given in US20090215991A1.

Target: FcγRIIIa on human PBMCs expressing heterozygous V158/F158 FcγRIIIa (human) (UniProt P08637)
Assay: cell-based or functional assay

FcγRIIIa on human PBMCs expressing heterozygous V158/F158 FcγRIIIa (human), sequence (P08637 17-254): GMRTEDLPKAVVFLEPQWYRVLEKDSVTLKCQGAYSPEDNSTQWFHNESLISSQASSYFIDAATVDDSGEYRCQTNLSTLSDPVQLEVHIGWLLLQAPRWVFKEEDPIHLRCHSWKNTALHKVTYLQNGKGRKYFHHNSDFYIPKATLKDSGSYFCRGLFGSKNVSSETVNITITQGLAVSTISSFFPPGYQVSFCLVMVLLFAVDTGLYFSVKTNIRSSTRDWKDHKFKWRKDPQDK

Row | ADCC log(EC50), DoHH-2 target cells | Substance
1 | 0.6 log(ng/ml) | V264I/I332E alemtuzumab (antibody)
2 | 0.49 log(ng/ml) | S239D/I332E alemtuzumab (antibody)

Target: extracellular region of human V158 FcγRIIIa with C-terminal 6xHis-tag and GST-tag (human) (UniProt P08637)
Assay: SPR

extracellular region of human V158 FcγRIIIa with C-terminal 6xHis-tag and GST-tag (human), sequence (P08637 17-208 F176V): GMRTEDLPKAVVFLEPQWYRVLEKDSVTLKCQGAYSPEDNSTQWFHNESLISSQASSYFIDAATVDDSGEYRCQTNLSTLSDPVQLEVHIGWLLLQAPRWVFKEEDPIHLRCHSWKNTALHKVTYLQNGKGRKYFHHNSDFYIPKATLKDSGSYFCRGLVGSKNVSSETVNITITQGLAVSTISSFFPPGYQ

Row | Fold WT | Substance
3 | 12.8 fold | S304T alemtuzumab (antibody)
4 | 2.31 fold | E283H alemtuzumab (antibody)
5 | 1.38 fold | E272R alemtuzumab (antibody)
6 | 1.51 fold | V284E alemtuzumab (antibody)
